Data on 3 molecules can be found in paper PMC4163024 (Structure (London, England : 1993), 2014).

The data set “crystal structure” deals with the molecule itself. Briefly: crystal structure.
The next data set addresses T1, recombinant DcR3-Ig (human, UniProt O95407 30-300).
T1 sequence (looked up): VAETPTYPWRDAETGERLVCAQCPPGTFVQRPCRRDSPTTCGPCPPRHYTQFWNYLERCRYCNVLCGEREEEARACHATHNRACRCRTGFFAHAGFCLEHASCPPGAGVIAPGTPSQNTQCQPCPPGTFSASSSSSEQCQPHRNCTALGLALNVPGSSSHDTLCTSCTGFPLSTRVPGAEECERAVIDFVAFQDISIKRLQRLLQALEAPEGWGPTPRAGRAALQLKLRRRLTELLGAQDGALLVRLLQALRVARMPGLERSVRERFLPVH
The data set is described as follows: SPR. In general terms: Surface plasmon resonance follows binding to a sensor surface in real time, without labels.

Another data set deals with recombinant LTβR-Ig (UniProt P36941 31-227). Briefly: SPR.
Sequence of recombinant LTβR-Ig (P36941 31-227): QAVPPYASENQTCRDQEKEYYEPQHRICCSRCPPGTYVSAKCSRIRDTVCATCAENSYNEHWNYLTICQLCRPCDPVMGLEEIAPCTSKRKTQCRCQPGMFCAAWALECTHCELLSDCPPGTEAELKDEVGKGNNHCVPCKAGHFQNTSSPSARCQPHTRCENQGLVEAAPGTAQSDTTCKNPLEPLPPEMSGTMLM

B1: Soluble LIGHT (residues L83-V240), wild type (ligand, human, UniProt O43557 83-240, looked up)
chain: LIQERRSHEVNPAAHLTGANSSLTGSGGPLLWETQLGLAFLRGLSYHDGALVVTKAGYYYIYSKVQLGGVGCPLGLASTITHGLYKRTPRYPEELELLVSQQSPCGRATSSSRVWWDSSFLGGVVHLEAGEKVVVRVLDERLVRLRDGTRSYFGAFMV
For orientation: stoichiometry N means the number of molecules, sites or subunits per partner or assembly. Usually Kd stands for a measure of binding affinity in units of concentration. For the molecule B1, in “crystal structure”, the “stoichiometry N” value came to 3. Moreover, the values for the Kd with recombinant DcR3-Ig and with recombinant LTβR-Ig were 16.7 ± 0.3 nM and 11.2 ± 0.6 nM, respectively.

B2: LIGHT mutant 1 (GH loop 226-231 replaced by the TL1A loop) (ligand, human)
chain: LIQERRSHEVNPAAHLTGANSSLTGSGGPLLWETQLGLAFLRGLSYHDGALVVTKAGYYYIYSKVQLGGVGCPLGLASTITHGLYKRTPRYPEELELLVSQQSPCGRATSSSRVWWDSSFLGGVVHLEAGEKVVVRVLDERLVDYTKEDRSYFGAFMV
Regarding B2, the Kd in the data set with recombinant DcR3-Ig was determined as 36 ± 1.8 nM; with recombinant LTβR-Ig it was 21 ± 3.3 nM.

B3: LIGHT mutant 2 (EF loop 195-198 replaced by the TL1A loop) (ligand, human)
chain: LIQERRSHEVNPAAHLTGANSSLTGSGGPLLWETQLGLAFLRGLSYHDGALVVTKAGYYYIYSKVQLGGVGCPLGLASTITHGLYKRTPRYPEELELLVSQQSPCGRATSSSSNWFDSSFLGGVVHLEAGEKVVVRVLDERLVRLRDGTRSYFGAFMV
On to B3, for which the Kd with recombinant DcR3-Ig was determined as 153 ± 54 nM; in the data set with recombinant LTβR-Ig, 17.2 ± 14 nM.
